# Target: hPTH (1-34) (human) (UniProt P01270)
# Design: unit not given beside the values
row,IC50: 50% inhibition of cAMP production in cultured mouse osteoblast MC3T3-E1 cells,Substance
1,0.007,Compound 1 (Ser-Glu-Ile-Gln-Leu-Met-His-Asn-Leu-Gly-Lys-Ser-Ile-Gln-Asp-Leu-Arg-Arg-Arg-Phe-Phe-Leu-His-His-Leu-Ile-Ala-Glu-Ile-His-Thr-Ala-NH2) (peptide)
2,0.015,Compound 3 (Ile-Gln-Leu-Met-His-Asn-Leu-Gly-Lys-Ser-Ile-Gln-Asp-Leu-Arg-Arg-Arg-Phe-Phe-Leu-His-His-Leu-Ile-Ala-Glu-Ile-His-Thr-Ala-NH2) (peptide)
3,1,[Tyr^34]-hPTH (3-34)-NH2 (from UniProt P01270) (peptide)
